The values below come from PMC9678776, “A higher plant FAD synthetase is fused to an inactivated FAD pyrophosphatase” (The Journal of Biological Chemistry, 2022).

What is called Km is the concentration of substrate that gives half-maximal velocity. A word on the kcat: it is the number of substrate molecules converted per active site and unit of time at saturation. By kcat/Km is commonly meant the turnover number divided by the Michaelis constant.

Series [1] addresses T1, AtFADS1 (Arabidopsis thaliana, UniProt Q9LZE4).
T1 construct: gene FADS1; N-terminus from primer MEIDKA
T1 sequence (Q9LZE4 1-497): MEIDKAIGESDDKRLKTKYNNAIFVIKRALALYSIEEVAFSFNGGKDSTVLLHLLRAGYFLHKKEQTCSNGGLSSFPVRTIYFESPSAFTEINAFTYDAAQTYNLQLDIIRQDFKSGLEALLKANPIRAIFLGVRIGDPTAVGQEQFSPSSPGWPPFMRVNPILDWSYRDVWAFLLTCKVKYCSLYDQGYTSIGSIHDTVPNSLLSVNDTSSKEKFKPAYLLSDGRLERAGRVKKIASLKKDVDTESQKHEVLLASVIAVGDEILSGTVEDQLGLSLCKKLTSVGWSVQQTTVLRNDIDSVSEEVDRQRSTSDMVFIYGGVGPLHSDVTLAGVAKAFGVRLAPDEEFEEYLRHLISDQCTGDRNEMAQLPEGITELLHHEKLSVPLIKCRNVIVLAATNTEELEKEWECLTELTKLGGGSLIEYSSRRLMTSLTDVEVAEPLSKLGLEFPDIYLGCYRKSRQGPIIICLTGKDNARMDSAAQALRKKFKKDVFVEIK
Put plainly: HPLC-fluorescence FAD synthetase assay, substrate-inhibition fit. Particulars: substrate inhibition by FMN; 10 mM ATP, zinc acetate 2 mM above ATP, Hepes-NaOH pH 7.0, 30 °C. The format is biochemical. The text has this:
HPLC-fluorescence FAD synthetase assay, substrate-inhibition fit on AtFADS1

In series [2] the target is T2, AtFADS1^trunc (Arabidopsis thaliana, UniProt Q9LZE4).
T2 construct: gene FADS1; N-terminal FAD synthetase domain only, starting at native Met1
T2 sequence (Q9LZE4 1-254 limits assumed): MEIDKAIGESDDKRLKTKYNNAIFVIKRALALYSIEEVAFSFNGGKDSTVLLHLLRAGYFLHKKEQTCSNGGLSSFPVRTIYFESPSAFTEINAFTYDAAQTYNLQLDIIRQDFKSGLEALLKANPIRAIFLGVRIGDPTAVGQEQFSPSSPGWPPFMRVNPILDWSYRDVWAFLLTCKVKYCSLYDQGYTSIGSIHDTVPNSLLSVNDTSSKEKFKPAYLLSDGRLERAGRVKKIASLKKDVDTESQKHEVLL
Described as above. The format is biochemical. Particulars: substrate inhibition by FMN; ATP, zinc acetate 2 mM above ATP, Hepes-NaOH pH 7.0, 30 °C. The text has this: HPLC-fluorescence FAD synthetase assay, substrate-inhibition fit on AtFADS1^trunc

For series [3], the target named is T3, CrFADS1 (Chlamydomonas reinhardtii, UniProt A0A2K3D179).
T3 construct: gene FADS1; bifunctional fusion
T3 sequence (A0A2K3D179 1-582): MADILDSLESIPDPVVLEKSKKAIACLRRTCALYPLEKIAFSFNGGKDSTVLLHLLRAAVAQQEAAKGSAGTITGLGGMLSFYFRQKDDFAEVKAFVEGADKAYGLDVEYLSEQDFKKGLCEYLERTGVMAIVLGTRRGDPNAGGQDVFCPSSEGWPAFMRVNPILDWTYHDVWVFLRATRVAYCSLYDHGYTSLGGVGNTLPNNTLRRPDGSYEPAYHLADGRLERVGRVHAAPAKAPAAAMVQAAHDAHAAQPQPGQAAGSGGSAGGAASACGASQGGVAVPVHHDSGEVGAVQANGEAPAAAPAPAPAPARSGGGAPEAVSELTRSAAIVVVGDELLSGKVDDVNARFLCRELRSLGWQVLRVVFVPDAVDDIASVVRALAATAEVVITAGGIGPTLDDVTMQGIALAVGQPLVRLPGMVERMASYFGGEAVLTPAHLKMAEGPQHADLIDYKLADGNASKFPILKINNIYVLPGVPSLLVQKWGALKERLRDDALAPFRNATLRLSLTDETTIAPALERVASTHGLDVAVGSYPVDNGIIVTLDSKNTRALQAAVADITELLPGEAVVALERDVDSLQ
The series is described as above. The format is biochemical. The conditions noted are these: substrate inhibition by FMN; 10 mM ATP, zinc acetate 2 mM above ATP, Hepes-NaOH pH 7.0, 30 °C. The text has this: (§1) HPLC-fluorescence FAD synthetase assay, substrate-inhibition fit on CrFADS1

Substrate in series [4]: Cc1cc2nc3c(=O)[nH]c(=O)nc-3n(C[C@H](O)[C@H](O)[C@H](O)COP(=O)(O)OP(=O)(O)OC[C@H]3O[C@@H](n4cnc5c(N)ncnc54)[C@H](O)[C@@H]3O)c2cc1C
Nature of the series: HPLC-fluorescence FAD pyrophosphatase assay, Michaelis-Menten. The format is biochemical, Chlamydomonas reinhardtii. Particulars: FAD pyrophosphatase activity, 2 mM CoCl2, 200 mM KCl, Hepes-NaOH pH 7.0, 30 °C. The text has this:
HPLC-fluorescence FAD pyrophosphatase assay, Michaelis-Menten on […]1

Substrate in series [5]: Cc1cc2nc3c(=O)[nH]c(=O)nc-3n(C[C@H](O)[C@H](O)[C@H](O)COP(=O)(O)O)c2cc1C
Nature of the series: HPLC-fluorescence FAD synthetase assay, substrate-inhibition fit. The format is biochemical, Chlamydomonas reinhardtii. The conditions noted are these: FAD synthetase activity, 10 mM ATP, zinc acetate 2 mM above ATP, Hepes-NaOH pH 7.0, 30 °C.
Excerpt: as §1

Substrate in series [6]: Nc1ncnc2c1ncn2[C@@H]1O[C@H](COP(=O)(O)OP(=O)(O)OP(=O)(O)O)[C@@H](O)[C@H]1O
Put plainly: HPLC-fluorescence FAD synthetase assay, Michaelis-Menten. The format is biochemical, Arabidopsis thaliana. The conditions noted are these: FAD synthetase activity, 15 μM FMN, zinc acetate 2 mM above ATP, Hepes-NaOH pH 7.0, 30 °C. The text has this: HPLC-fluorescence FAD synthetase assay, Michaelis-Menten on […]1

Turning to `Cc1cc2nc3c(=O)[nH]c(=O)nc-3n(C[C@H](O)[C@H](O)[C@H](O)COP(=O)(O)O)c2cc1C` [FMN], the “Ki” value in series [1] worked out at 190 ± 36 µM; in series [2], 32.7 ± 18.2 µM; in series [3] it was 336 ± 66 µM.

B1: CrFADS1 (Chlamydomonas reinhardtii) (protein)
chain: T3 sequence (A0A2K3D179 1-582)
notes: bifunctional fusion
Take B1: in series [4], the Km worked out at 4.88 ± 0.56 µM, the kcat is 0.395 ± 0.011 s⁻¹ and the kcat/Km was determined as 81000 ± 9600 M⁻¹ s⁻¹. Further, in series [5], the Km stood at 0.54 ± 0.09 µM, the kcat worked out at 0.103 ± 0.004 s⁻¹ and the kcat/Km stood at 191000 ± 33000 M⁻¹ s⁻¹.

B2: AtFADS1 (Arabidopsis thaliana) (protein)
chain: T1 sequence (Q9LZE4 1-497)
notes: N-terminus from primer MEIDKA
For the molecule B2, in series [6], the Km was found to be 665 ± 11 µM, the kcat worked out at 0.287 ± 0.011 s⁻¹ and the kcat/Km was found to be 432 ± 18 M⁻¹ s⁻¹.
